To fix the notation:
B1: Clone 49A 4-1BB antibody (IgG1) (antibody, V domains shown)
VH: VKLQQSGPELVKPGASVKISCKASGYTFTDYYMNWVKESHGKSLEWIGDINPNNGGSTYYNQKFKGKATLTVEKSSSTAFMELRSLTSEDSAVYYCARSLYGSTYYFDYWGQGTPLTVSS
VL: DIVLTQSPASLAVSLGQRATISCKASQSVDYDGDSYMNWYQQKPGQPPKLLIYAASNLESGIPARFSGSGSGTDFTLNIHPVEEEDAGTYYCQQSNDDPWTFGGGTKLEIK
B2: Clone 138 4-1BB antibody (IgG2b) (antibody, V domains shown)
VH: VQLQESGGGLVKPGGSLKLSCAASGFTFSDYGMHWVRQAPEKGLEWVAYISSGSNSIYYADTVTGRFTISRDNAKNTLFLQMTSLRSEDTAMYYCASNNGYFYFDYWGQGTTLTVSS
VL: IVITQSPAILSASPGEKVTMTCRASSSVSYMHWYQQKPGSSPKPWIYATSNLASGVPARFSGSGSGTSYSLTVSRVEAEDAATYYCQQWSSDPFTFGSGTKLEIK
B3: Clone 54 4-1BB antibody (IgG2a) (antibody, V domains shown)
VH: EFQLQQSGPELVKPGASVKISCKASGYSFTDYNMNWVKQSNGKSLEWIGVINPNYGTTSYNQKFKGKATFTVDQSSSTAYMQLNSLTSEDSAVYYCARSPVEDYFDYWGQGTTLTVSS
VL: ENVLTQSPAIMSASPGEKVTMTCRARSSVSSSYLHWYQQKSGASPKLWIYSTSNLASGVPARFSGSGSGTSYSLTISSVEAEDAATYYCQQYSGYPLITFGAGTKLELKR

The results in this text go back to US20260217846A1 (published 2026).

The target in the test is recombinant human 4-1BB (human, UniProt Q07011 24-186). As to the kind of experiment: ELISA.
recombinant human 4-1BB, sequence (Q07011 24-186): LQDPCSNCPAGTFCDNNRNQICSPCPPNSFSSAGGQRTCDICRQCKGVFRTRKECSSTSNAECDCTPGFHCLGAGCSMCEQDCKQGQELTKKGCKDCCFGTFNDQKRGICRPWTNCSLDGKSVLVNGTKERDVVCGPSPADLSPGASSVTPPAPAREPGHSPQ
In the case of B1, the concentration giving a half-maximal response (EC50) was 1.32 ng/mL. The same measure for B2: 4.71 ng/mL; for B3: 16 ng/mL.
